# Measured values as given in patent US20220151976A1 (UNIVERSITY OF TOLEDO, published 2022).
# Legend:
# [1] = target: eIF4E, endogenous in 231S cells (human) (UniProt P06730); test: m7GTP pulldown from 231S lysate after CXCL12, LASP1/eIF4E densitometry against 0 min; association may be through the complex
# [2] = target: T1, Eukaryotic initiation factor 4A (eIF4A1), endogenous in 231S cells (human, UniProt P60842 2-406); test: proximity ligation assay in 231S cells, CXCL12 5 min against unstimulated
# T1 construct: Endogenous intracellular protein; eIF4A1 antibody (Cohesion CQA1180) used in PLA and IP, eIF4A C32B4 in Western blots
# Procedure: 100 nM AMD3465 was added 30 min prior to stimulation. […] Representative images of the PLA experiment are provided. Quantification indicates the average number of interactions/cell across multiple independent fields.
# [3] = target: T1, Eukaryotic initiation factor 4A …; test: reciprocal co-immunoprecipitation (LASP1 IP, eIF4A blot) from 231S lysate, densitometry against 0 min
# Procedure: (§1) 1 mg of total protein lysate was employed in all immunoprecipitation reactions. eIF4B was immunoprecipitated by using 2 μg of eIF4B antibody (Cell Signaling Technology, Danvers, Mass., Cat. No. 13088). Mouse (G3A1) mAb IgG1 Isotype Control (Cell Signaling Technology, Danvers, Mass., Cat. No. 5415) served as the mock control. Next, eIF4A was immunoprecipitated using 2 μg of eIF4A1 antibody (Cohesion Biosciences, London, Purley, Cat. No. CQA1180). His-Tag (D3L10) XP® Rabbit mAb (Cell Signaling Technology, Danvers, Mass., Cat. No. 12698) was employed for the mock condition. […] As in the eIF4B Co-IP, mouse (G3A1) IgG1 isotype mAb was employed as the mock control. Prior to immunoprecipitation, lysates were pre-cleared with 20 μL of PureProteome™ Protein G Magnetic Beads (Millipore, Billerica, Mass., Cat. No. LSKMAGG10) for 2 H at 4° C. Immunoprecipitation reactions were then allowed to proceed with 20 μL of protein G magnetic beads and the appropriate amount of antibody for 2 h at 4° C. Beads were washed thrice with Co-IP buffer. To avoid heavy chain contamination (55 kDa) in the eIF4A Co-IP, antibodies were cross-linked using BS³ (according to Millipore recommendations). Proteins of interest were analyzed by sodium dodecyl sulfate-polyacrylamide gel electrophoresis (SDS-PAGE) and Western blotting.
# [4] = target: T2, Eukaryotic initiation factor 4B (eIF4B), endogenous in 231S cells (human, UniProt P23588 1-611); test: reciprocal co-immunoprecipitation (LASP1 IP, eIF4B blot) from 231S lysate, densitometry against 0 min
# T2 construct: Endogenous protein in lysate
# Procedure: as §1
# T1 sequence (P60842 2-406 limits assumed): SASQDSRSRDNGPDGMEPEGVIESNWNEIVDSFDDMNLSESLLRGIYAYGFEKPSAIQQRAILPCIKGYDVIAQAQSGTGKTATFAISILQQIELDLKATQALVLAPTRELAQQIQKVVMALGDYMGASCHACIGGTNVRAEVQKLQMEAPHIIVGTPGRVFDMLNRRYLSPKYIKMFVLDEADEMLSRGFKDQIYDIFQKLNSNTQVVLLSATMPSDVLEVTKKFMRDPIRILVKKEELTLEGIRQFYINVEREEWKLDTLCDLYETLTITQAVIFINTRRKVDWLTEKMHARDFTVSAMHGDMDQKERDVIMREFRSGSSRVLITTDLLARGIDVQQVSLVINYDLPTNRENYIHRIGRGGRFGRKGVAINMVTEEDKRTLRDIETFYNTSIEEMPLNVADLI
# Chain of eIF4E, endogenous in 231S cells (human) (P06730 2-217 limits assumed): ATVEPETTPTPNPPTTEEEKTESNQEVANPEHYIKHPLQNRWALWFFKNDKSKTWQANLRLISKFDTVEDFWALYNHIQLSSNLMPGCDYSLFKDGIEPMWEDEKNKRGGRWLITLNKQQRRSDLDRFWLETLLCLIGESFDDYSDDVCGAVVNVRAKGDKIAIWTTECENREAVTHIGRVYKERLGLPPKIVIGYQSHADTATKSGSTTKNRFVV
# T2 sequence (P23588 whole entry): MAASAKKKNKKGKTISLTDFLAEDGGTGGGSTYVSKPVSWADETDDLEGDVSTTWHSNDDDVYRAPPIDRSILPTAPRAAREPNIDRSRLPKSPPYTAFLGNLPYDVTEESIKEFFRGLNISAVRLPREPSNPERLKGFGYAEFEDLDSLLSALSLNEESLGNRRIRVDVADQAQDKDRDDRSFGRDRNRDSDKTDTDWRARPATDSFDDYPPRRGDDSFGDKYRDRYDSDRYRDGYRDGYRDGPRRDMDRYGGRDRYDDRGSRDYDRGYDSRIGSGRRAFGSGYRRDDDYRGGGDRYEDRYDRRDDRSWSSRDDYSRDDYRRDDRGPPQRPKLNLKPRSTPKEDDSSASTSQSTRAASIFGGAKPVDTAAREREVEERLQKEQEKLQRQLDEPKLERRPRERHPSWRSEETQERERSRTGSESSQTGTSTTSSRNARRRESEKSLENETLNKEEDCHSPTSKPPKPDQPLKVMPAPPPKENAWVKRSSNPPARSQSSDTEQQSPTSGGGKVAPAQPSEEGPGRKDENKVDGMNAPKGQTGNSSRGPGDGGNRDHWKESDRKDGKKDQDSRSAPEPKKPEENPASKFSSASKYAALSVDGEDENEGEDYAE
binder,measurement,setting,value
"LIM and SH3 Protein 1 (LASP1), endogenous in 231S cells (other, human, UniProt Q14847 1-261, looked up, Endogenous intracellular protein; detected or immunoprecipitated with mouse LASP1 antibody 8C6 (Biolegend 909301); also called endogenous LASP1) MNPNCARCGKIVYPTEKVNCLDKFWHKACFHCETCKMTLNMKNYKGYEKKPYCNAHYPKQSFTMVADTPENLRLKQQSELQSQVRYKEEFEKNKGKGFSVVADTPELQRIKKTQDQISNIKYHEEFEKSRMGPSGGEGMEPERRDSQDGSSYRRPLEQQQPHHIPTSAPVYQQPQQQPVAQSYGGYKEPAAPVSIQRSAPGGGGKRYRAVYDYSAADEDEVSFQDGDTIVNVQQIDDGWMYGTVERTGDTGMLPANYVEAI",fold increase in association,[1],2.2 fold
same,fold stimulation of the interaction,[2],3 fold
same,fold increase in association,[3],19.1 fold
same,fold increase in association,[4],7.5 fold
